# In patent US20210317456:
# System: Immunoglobulin G (total IgG)
# Assay: pulldown
# Details: P = 2NapdU; SB18, 37C, bead partitioning
row,Sequence,Kd [nM]
1,AGACTGCGGTTACCTTGTAGGCGATTATGG [5334-8_31],> 1000
2,AGACTGCGGTTACCTTGTAGGCGATTATGGG [5334-8_30],80.9
3,AGACTGCGGTTACCTTGTAGGCGATTATGGGC [5334-8_29],15.6
4,AGACTGCGGTTACCTTGTAGGCGATTATGGGCAG [5334-8_11],4.69
5,CGGCACTCCACATCCAAGACTGCGGTTACCTTGT [5334-8_19],> 1000
6,CGGCACTCCACATCCAAGACTGCGGTTACCTTGTAGGCGATT [5334-8_15],> 1000
7,CGGCACTCCACATCCAAGACTGCGGTTACCTTGTAGGCGATTATGG [5334-8_13],> 1000
8,CGGCACTCCACATCCAAGACTGCGGTTACCTTGTAGGCGATTATGGGC [5334-8_12],25.8
9,CGGTTACCTTGTAGGCGATTATGGGCAG [5334-8_26],> 1000
10,CTGCGGTTACCTTGTAGGCGATTATGGGCAG [5334-8_23],4.04
11,GCACTCCACATCCAAGACTGCGGTTACCTTGTAGGCGATTATGGGCAG [5334-8_4],17.3
12,GCGGTTACCTTGTAGGCGATTATGGGCAG [5334-8_25],5.83
13,GGTTACCTTGTAGGCGATTATGGGCAG [5334-8_27],279

# Same assay, conditions: P = NapdU; SB18, 37C, bead partitioning
row,Sequence,Kd [nM]
1,ACGATGGCGAACTCCCTGAATGCTCTTGTCTTAAGTCCCCAACA [14125-144_6],7.49
2,ACGATTTTCAGTTGGATCCAGTACCTGGCTGGAGAGAA [5406-56_9],> 1000
3,CATACGGTACGATTTTCAGTTGGATCCAGTACCTGGCTGGAGAGAA [5406-56_5],7.91
4,CCTCCATACGGTACGATTTTCAGTTGGATCCAGT [5406-56_19],> 1000
5,CCTCCATACGGTACGATTTTCAGTTGGATCCAGTAC [5406-56_18],42.2
6,CCTCCATACGGTACGATTTTCAGTTGGATCCAGTACCT [5406-56_17],4.14
7,CCTCCATACGGTACGATTTTCAGTTGGATCCAGTACCTGG [5406-56_16],2.58
8,CCTCCATACGGTACGATTTTCAGTTGGATCCAGTACCTGGCT [5406-56_15],4.64
9,CCTCCATACGGTACGATTTTCAGTTGGATCCAGTACCTGGCTGG [5406-56_14],3
10,CCTCCATACGGTACGATTTTCAGTTGGATCCAGTACCTGGCTGGAG [5406-56_13],2.61
11,CCTCCATACGGTACGATTTTCAGTTGGATCCAGTACCTGGCTGGAGAG [5406-56_12],2.88
12,CGGTACGATTTTCAGTTGGATCCAGTACC [5406-56_41],2.74
13,CGGTACGATTTTCAGTTGGATCCAGTACCTGGCTGGAGAGAA [5406-56_7],13
14,GAACTCCCTGAATGCTCTTGTCTTAAGTCCCCAACA [14125-144_10],> 1000
15,GATTTTCAGTTGGATCCAGTACCTGGCTGGAGAGAA [5406-56_10],> 1000
16,GCCTGCACGATGGCGAACTCCCTGAATGCTCTTGTC [14125-144_18],> 1000
17,GCCTGCACGATGGCGAACTCCCTGAATGCTCTTGTCTT [14125-144_17],15.4
18,GCCTGCACGATGGCGAACTCCCTGAATGCTCTTGTCTTAAGT [14125-144_15],14.6
19,GCGAACTCCCTGAATGCTCTTGTCTTAAGTCCCCAACA [14125-144_9],> 1000
20,GGCGAACTCCCTGAATGCTCTTGTCTT [14125-144_31],> 1000
21,GGCGAACTCCCTGAATGCTCTTGTCTTA [14125-144_27],> 1000
22,GGCGAACTCCCTGAATGCTCTTGTCTTAA [14125-144_23],> 1000
23,GTACGATTTTCAGTTGGATCCAGTAC [5406-56_49],17.6
24,GTACGATTTTCAGTTGGATCCAGTACCT [5406-56_37],9.44
25,GTACGATTTTCAGTTGGATCCAGTACCTG [5406-56_31],14.8
26,GTACGATTTTCAGTTGGATCCAGTACCTGGCTGGAGAGAA [5406-56_8],78.1
27,TACGATTTTCAGTTGGATCCAGTACC [5406-56_44],36.2
28,TACGATTTTCAGTTGGATCCAGTACCT [5406-56_38],> 1000

# Same assay, conditions: P = NapdU; SB18, 37C; 25-mer core
row,Sequence,Kd [nM]
1,TACGATTTTCAGTTGGATCCAGTAC [5406-56_50],18.8
